# Assay results: PMC4417145
# T1: HMGA2 (high-mobility-group protein AT-hook 2) (mammalian (species ), UniProt P52926 1-109)
# T1 sequence: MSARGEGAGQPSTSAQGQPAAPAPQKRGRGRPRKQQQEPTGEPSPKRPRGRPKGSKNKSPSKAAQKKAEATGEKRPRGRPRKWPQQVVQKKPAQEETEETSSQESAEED
# B1: FL842/FL843 (SELEX1 duplex) (dsDNA)
# DNA 1: CCCCCCATATTCGCGATTATTGCGC
# DNA 2: GCGCAATAATCGCGAATATGGGGGG
# Biological target: T1, HMGA2 (high-mobility-group protein …)
# Test: PDI-ELISA
binder,measurement,value
B1,binding result,binds
